The values that follow come from paper PMC2817712.

In the test the target is CheY6 (wild type) with an engineered C-terminal biotinylation tag, for SPR surfaces (R. sphaeroides). Nature of the test: SPR; Biacore T100, 25°C; response regulator biotinylated in a C-terminal tag and held on streptavidin (200-1,500 RU); CheA3P1 injected at 120 nM to 2 mM; standard buffer (30 mM Hepes pH 7.5, 150 mM NaCl, 5 mM sodium acetate, 2 mM manganese chloride, 2 mM TCEP) with 0.05% Tween 20; equilibrium binding, 1:1 Langmuir model. (In general: SPR reads the build-up and loss of mass on a sensor chip optically.)
Chain of CheY6 (wild type) with an engineered C-terminal biotinylation tag, for SPR surfaces (R. sphaeroides) (Q8KLS1 entry or part of it, stated change not applied): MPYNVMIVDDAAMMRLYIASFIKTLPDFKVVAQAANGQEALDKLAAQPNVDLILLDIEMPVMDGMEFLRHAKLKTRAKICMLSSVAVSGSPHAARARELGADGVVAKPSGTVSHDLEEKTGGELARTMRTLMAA

As to “CheA3P1, the isolated P1 (Hpt, histidine-containing phosphotransfer) domain of CheA3 (residues 1-135), unphosphorylated (domain or fragment)”, the Kd (commonly the free concentration of one partner at which half of the binding sites on the other are occupied at equilibrium, for simple one-to-one binding) came to 218 µM.
